B1: HDA19-EGFP (HDA19pro:HDA19-EGFP) (enzyme, Arabidopsis thaliana, UniProt O22446 1-501, looked up)
chain: MDTGGNSLASGPDGVKRKVCYFYDPEVGNYYYGQGHPMKPHRIRMTHALLAHYGLLQHMQVLKPFPARDRDLCRFHADDYVSFLRSITPETQQDQIRQLKRFNVGEDCPVFDGLYSFCQTYAGGSVGGSVKLNHGLCDIAINWAGGLHHAKKCEASGFCYVNDIVLAILELLKQHERVLYVDIDIHHGDGVEEAFYATDRVMTVSFHKFGDYFPGTGHIQDIGYGSGKYYSLNVPLDDGIDDESYHLLFKPIMGKVMEIFRPGAVVLQCGADSLSGDRLGCFNLSIKGHAECVKFMRSFNVPLLLLGGGGYTIRNVARCWCYETGVALGVEVEDKMPEHEYYEYFGPDYTLHVAPSNMENKNSRQMLEEIRNDLLHNLSKLQHAPSVPFQERPPDTETPEVDEDQEDGDKRWDPDSDMDVDDDRKPIPSRVKREAVEPDTKDKDGLKGIMERGKGCEVEVDESGSTKVTGVNPVGVEEASVKMEEEGTNKGGAEQAFPPKT

Tests used:
[1] = molecular target: the molecule itself; test: fluorescence correlation spectroscopy
[2] = molecular target: B1; test: fluorescence correlation spectroscopy

| percent of the complex in a 1:1 ratio [2] [%] | stoichiometry N [2] | Binder | stoichiometry N [1] |
| --- | --- | --- | --- |
| – | – | B1 | 2 |
| 98.8 | 1 ratio (1:1) | SCR-mCherry (SCRpro:SCR-mCherry) (natural protein, Arabidopsis thaliana, UniProt Q9M384 1-653, looked up) MAESGDFNGGQPPPHSPLRTTSSGSSSSNNRGPPPPPPPPLVMVRKRLASEMSSNPDYNNSSRPPRRVSHLLDSNYNTVTPQQPPSLTAAATVSSQPNPPLSVCGFSGLPVFPSDRGGRNVMMSVQPMDQDSSSSSASPTVWVDAIIRDLIHSSTSVSIPQLIQNVRDIIFPCNPNLGALLEYRLRSLMLLDPSSSSDPSPQTFEPLYQISNNPSPPQQQQQHQQQQQQHKPPPPPIQQQERENSSTDAPPQPETVTATVPAVQTNTAEALRERKEEIKRQKQDEEGLHLLTLLLQCAEAVSADNLEEANKLLLEISQLSTPYGTSAQRVAAYFSEAMSARLLNSCLGIYAALPSRWMPQTHSLKMVSAFQVFNGISPLVKFSHFTANQAIQEAFEKEDSVHIIDLDIMQGLQWPGLFHILASRPGGPPHVRLTGLGTSMEALQATGKRLSDFADKLGLPFEFCPLAEKVGNLDTERLNVRKREAVAVHWLQHSLYDVTGSDAHTLWLLQRLAPKVVTVVEQDLSHAGSFLGRFVEAIHYYSALFDSLGASYGEESEERHVVEQQLLSKEIRNVLAVGGPSRSGEVKFESWREKMQQCGFKGISLAGNAATQATLLLGMFPSDGYTLVDDNGTLKLGWKDLSLLTASAWTPRS | – |
